Target: ncor2_human NCOR2 (UniProt Q9Y618)

effect of a mutation on the interaction: decreasing interaction strength
Substance: Recombining binding protein suppressor of hairless (Homo sapiens), Q06330 E233A;E234A;F235A

From IntAct's records for PubMed 10713164
